B1: clone MI407 anti-MSLN antibody (antibody, V domains shown)
VH: EVKLVESGGGLVKPGGSLKLSCAASGFPFSNYDMSWVRQTPEKRLEWVAYISSGGGNTYYPDTVKGRFTISRDNAKNTLYLQMSSLKSEDTALYFCVRQGTSVESYWYFDVWGAGTTVTVSS
VL: DIVLTQSPASLAVSLGQRATISCRASQSVSTSSSSYIHWYQQKPGQPPKLLIKYASNLESGVPARFSGSGSGTDFTLNIHPVEEDDTATYYCQHSWEIPFTFGSGTELEIKR
notes: also called M1407
B2: clone MS505 anti-MSLN antibody (antibody, IgG1, V domains shown)
VH: EVQLLESGGGLVQPGGSLRLSCAASGFTFSNYAMSWVRQAPGKGLEWVSAIYPDGSNKYYADSVKGRFTVSRDNSKNTLYLQMNSLRAEDTAVYYCARNAYTFDYWGQGTLVTVSS
VL: QSVLTQPPSASGTPGRRVTISCSGSSSNIGSNAVSWYQQLPGTAPKLLIYYNSQRPSGVPDRFSGSKSGTSASLAISGLRSEDEADYYCGSWDSSLNGYVFGGGTKLTVLG
notes: From a phage display synthetic scFv library
B3: clone MS501 anti-MSLN antibody (antibody, V domains shown)
VH: EVQLLESGGGLVQPGGSLRLSCAASGFTFSNYAMSWVRQAPGKGLEWVSGIYPDSGSTYYADSVKGRFTISRDNSKNTLYLQMNSLRAEDTAVYYCARNIYTFDYWGQGTLVTVSS
VL: QSVLTQPPSASGTPGQRVTISCSGSSSNIGSNAVSWYQQLPGTAPKLLIYYNNQRPSGVPDRFSGSKSGTSASLAISGLRSEDEADYYCGSWDSSLSGYVFGGGTKLTVLG
notes: as for B2
B4: clone MS504 anti-MSLN antibody (antibody, IgG1, V domains shown)
VH: EVQLLESGGGLVQPGGSLRLSCAASGFTFSNYAMSWVRQAPGKGLEWVSSIYPNGSSKYYADSVKGRFTISRDNSKNTLYLQMNSLRAEDMAVYYCAKNLLTFDYWGQGTLVTVSS
VL: QSVLTQPPSASGPPGQRVTISCTGSSSNIGNNSVSWYQQLPGTAPKLLIYYDSHRPSGVPDRFSGSKSGTSASLAIGGLRSEDEADYYCGAWDDSLNAYVFGGGTKLTVLG
notes: as for B2
B5: clone MS506 anti-MSLN antibody (antibody, IgG1, V domains shown)
VH: EVQLLESGGGLVQPGGSLRLSCAASGFTFSNYAMSWVRQAPGKGLEWVSSIYPGSGSTYYADSVKGRFTISRDNSKNTLYLQMNSLRAEDTAVYYCARNLYTFDYWGQGTLVTVSS
VL: QSVLTQPPSASGTPGQRVTISCTGSSSNIGSNAVTWYQQLPGTAPKLLIYYDSHRPSGVPDRFSGSKSGTSASLAISGPRSEDEADYYCGAWDSSLSAYVFGGGTKLTVLG
notes: as for B2
B6: clone MS502-1 anti-MSLN antibody (antibody, V domains shown)
VH: EVQLLESGGGLVQPGGSLRLSCAASGFTFSNYAMSWVRQAPGKGLEWVSGIPPDSGSKYYADSVRGRFTVSRDNSKNTLYLQMNSLRAEDTAVYYCAKNMLSFDYWGQGTLVTVSS
VL: QSVLTQPPSASGTPGQRVTISCICSSSNIGSNAVSWYQQLPGTAPKLLIYYNSKRPSGVPDRFSGSKSGTSASLAISGLRSEDEADYYCGSWDSSLNGYVFGGGTKLTVLG
B7: clone MS503 anti-MSLN antibody (antibody, IgG1, V domains shown)
VH: EVQLLESGGGLVQPGGSLRLSCAASGFTFSNYAMSWVRQAPGKGLEWVSSIYPGDGSTYYADSVKGRFTISRDNSKNTLYLQMNSLRAEDTAVYYCAKNAFTFDYWGQGTLVTVSS
VL: QSVLTQPPSASGTPGQRVTISCSGSSSNIGSNAVSWYQQLPGTAPKLLIYYNSHRPSGVPDRFSGSKSGTSASLAISGLRSEDEADYYCGTWDSSLSGYVFGGGTKLTVLG
notes: as for B2
B8: clone 2-30 (MS502 heavy chain variable region mutation antibody) (antibody, V domains shown)
VH: EVQLLESGGGLVQPGGSLRLSCAASGFTFSNYAMSWVRQAPGKGLEWVSGIPPDSNSKYYADSVRGRFTVSRDNSKNTLYLQMNSLRAEDTAVYYCAKNMRTFDYWGQGTLVTVSS
VL: QSVLTQPPSASGTPGQRVTISCTGSSSNIGSNAVSWYQQLPGTAPKLLIYYNSKRPSGVPDRFSGSKSGTSASLAISGLRSEDEADYYCGSWDSSLNGYVFGGGTKVTVLG
notes: SPR done with IgG (human heavy chain constant region vector, MS502 light chain)
B9: clone 2-30-C2G4 antibody (antibody, V domains shown)
VH: EVQLLESGGGLVQPGGSLRLSCAASGFTFSNYAMSWVRQAPGKGLEWVSGIPPDSNSKYYADSVRGRFTVSRDNSKNTLYLQMNSLRAEDTAVYYCAKNMRTFDYWGQGTLVTVSS
VL: QSVLTQPPSASGTPGQRVTISCTGSSSNIGSNAVSWYQQLPGTAPKLLIYYNSKRPSGVPDRFSGSKSGTSASLAISGLRSEDEADYYCGSWDPSLNGYVFGGGTKVTVLG
notes: IgG (human IgG1 heavy chain constant region; light chain constant region said to be human kappa)
B10: clone 2-73-C2G4 antibody (antibody, V domains shown)
VH: EVQLLESGGGLVQPGGSLRLSCAASGFTFSNYAMSWVRQAPGKGLEWVSGIPPNSDSKYYADSVRGRFTVSRDNSKNTLYLQMNSLRAEDTAVYYCAKNMLSFDYWGQGTLVTVSS
VL: QSVLTQPPSASGTPGQRVTISCTGSSSNIGSNAVSWYQQLPGTAPKLLIYYNSKRPSGVPDRFSGSKSGTSASLAISGLRSEDEADYYCGSWDPSLNGYVFGGGTKVTVLG
notes: as for B9
B11: clone 56 (MS502 heavy chain variable region mutation antibody) (antibody, V domains shown)
VH: EVQLLESGGGLVQPGGSLRLSCAASGFTFSNYAMSWVRQAPGKGLEWVSGIPPDSASKYYADSVRGRFTVSRDNSKNTLYLQMNSLRAEDTAVYYCAKNMLSFDYWGQGTLVTVSS
VL: QSVLTQPPSASGTPGQRVTISCTGSSSNIGSNAVSWYQQLPGTAPKLLIYYNSKRPSGVPDRFSGSKSGTSASLAISGLRSEDEADYYCGSWDSSLNGYVFGGGTKVTVLG
notes: as for B8
B12: clone 56-C2G4 antibody (antibody, V domains shown)
VH: EVQLLESGGGLVQPGGSLRLSCAASGFTFSNYAMSWVRQAPGKGLEWVSGIPPDSASKYYADSVRGRFTVSRDNSKNTLYLQMNSLRAEDTAVYYCAKNMLSFDYWGQGTLVTVSS
VL: QSVLTQPPSASGTPGQRVTISCTGSSSNIGSNAVSWYQQLPGTAPKLLIYYNSKRPSGVPDRFSGSKSGTSASLAISGLRSEDEADYYCGSWDPSLNGYVFGGGTKVTVLG
notes: as for B9
B13: clone 2-78 (MS502 heavy chain variable region mutation antibody) (antibody, V domains shown)
VH: EVQLLESGGGLVQPGGSLRLSCAASGFTFSNYAMSWVRQAPGKGLEWVSGIPPDSGSKYYADSVRGRFTVSRDNSKNTLYLQMNSLRAEDTAVYYCAKNMFSFDYWGQGTLVTVSS
VL: QSVLTQPPSASGTPGQRVTISCTGSSSNIGSNAVSWYQQLPGTAPKLLIYYNSKRPSGVPDRFSGSKSGTSASLAISGLRSEDEADYYCGSWDSSLNGYVFGGGTKVTVLG
notes: as for B8

The text below walks through data of US20180346588A1 (MOGAM INSTITUTE FOR BIOMEDICAL RESEARCH, published 2018).

The target in the first experiment is T1, human mesothelin (MSLN) on the cell surface (human, UniProt Q13421 296-598).
T1 construct: also called MSLN of mesothelioma (H226, H2052) and pancreatic cancer (AsPC-1) cell lines; MSLN on MiaPaCa-MSLN #2 cells
T1 sequence (Q13421 other isoform, or with tags, fused parts or gaps limits assumed): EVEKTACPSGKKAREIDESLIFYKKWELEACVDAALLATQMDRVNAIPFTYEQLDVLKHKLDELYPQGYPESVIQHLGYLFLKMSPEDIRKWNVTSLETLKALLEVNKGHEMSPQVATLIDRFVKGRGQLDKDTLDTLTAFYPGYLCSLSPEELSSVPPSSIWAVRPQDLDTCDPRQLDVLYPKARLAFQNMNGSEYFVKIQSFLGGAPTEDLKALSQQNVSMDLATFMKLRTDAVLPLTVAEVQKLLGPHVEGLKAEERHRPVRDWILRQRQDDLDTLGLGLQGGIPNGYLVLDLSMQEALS
Description: FACS on MSLN stable cell line (#2), left panels; sheet note: 1st Ab 1 µg (1st assay), 2nd Ab anti-human Fc antibody FITC. How it is done: FACS test was performed on the MSLN present in the cell surface with regard to MiaPaCa-MSLN which is a cell line in which the MSLN was artificially expressed. Cells to be analyzed that were grown in a culture dish were separated by adding a Tryple Express solution and stored in a 50 mL tube, followed by centrifugation at 2000 rpm at room temperature for 3 minutes to decant the culture fluid, and the obtained product was washed once with PBS. The cells were suspended with FACS buffer, and transferred to a round bottom tube and centrifuged at 2000 rpm at room temperature for 3 minutes. The supernatant was discarded and the cells were well-loosened with the FACS buffer so as to have a cell density of 4×10⁵/mL. Then, 1 μg of candidate antibody was added thereto at 4° C. After 1 hour, the resultant material was washed with the FACS buffer twice, and goat-derived anti-human IgG antibody (FITC junction) was added in an amount of 1 μL for each sample to be combined at 4° C. for 30 minutes. The cells were collected by centrifugation at 2000 rpm for 3 minutes, and 500 μL of fixation buffer was added to resuspend the cells, and the cells were measured by FACS calibur (FIG. 6).
The FACS test was performed to evaluate whether the anti-MSLN antibody was selectively bound to the MSLN-overexpressing cell line (MiaPaCa-MSLN #2). The anti-MSLN candidate antibody was labeled by the method described in Example 4-2 above, and the cells were measured by FACS calibur (FIG. 7).
On to B1, for which the “Mean, FL1-H” value is 225.
On the same count and under the same terms, in the case of B2 it was 181.

A further experiment deals with T2, recombinant human mesothelin (MSLN) (human, UniProt Q13421 296-580, limits assumed).
T2 construct: also called human MSLN; recombinant human MSLN
T2 sequence (Q13421 other isoform, or with tags, fused parts or gaps limits assumed): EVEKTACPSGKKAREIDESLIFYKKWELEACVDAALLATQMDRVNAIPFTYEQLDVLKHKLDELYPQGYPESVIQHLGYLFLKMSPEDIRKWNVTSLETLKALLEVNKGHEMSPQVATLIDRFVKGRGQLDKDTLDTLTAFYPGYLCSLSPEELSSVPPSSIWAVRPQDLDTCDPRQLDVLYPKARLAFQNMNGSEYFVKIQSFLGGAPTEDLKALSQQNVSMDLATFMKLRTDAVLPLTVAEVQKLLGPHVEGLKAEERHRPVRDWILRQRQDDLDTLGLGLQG
Description: ELISA, clone supernatant on MSLN-coated plate. How it is done:
Single colonies of a phage display synthetic scFv library final amplified population were collected, and cultured with 1.5 mL of SB/carbenicillin to an OD₆₀₀ of 0.8 to 1.0 at 37° C. and at 220 rpm, and then cultured with 1 mM IPTG at 30° C. and at 200 rpm for 12 hours or more. The reaction materials were centrifuged at 5500 rpm for 5 minutes, and only each supernatant was added to ELISA plates containing underlying MSLN antigen, and reacted at room temperature for 2 hours. Then, the resultant materials were washed with PBST (1×PBS, 0.05% tween 20) four times, and HRP/Anti-hFab-HRP conjugate diluted by 1/5000 with 1% BSA/1×PBS was added thereto, and reacted at room temperature for 1 hour, and washed with PBST (1×PBS, 0.05% tween 20) 4 times. Then, a TMB solution was added thereto and reacted for 5 to 10 minutes, and a TMB stop solution was added thereto. Next, O.D values were measured at a measurement wavelength of 450 nm using a TECAN sunrise, and clones having high O.D. value were secured as individual clones.
Background: ELISA stands for enzyme-linked immunosorbent assay.
As to B3, the binding result was “binds”.
The same measure, in the same setting: the entry for B4 is “binds”; for B5 it is “binds”; for B6 it is “binds”.
On the same count and under the same terms, in the case of B7 it was “binds”.

Another experiment concerns the target T2, recombinant human mesothelin (MSLN). The experiment is described as follows: SPR, Biacore T-200; MSLN amine-coupled to CM5 chip, IgG in flow. How it is done: The quantitative binding force (affinity) of each of the purified anti-MSLN antibodies, i.e., MS502 clone heavy chain variable region mutation antibodies 56, 2-30, 2-73, 2-78, and the combination antibodies of the C2G4 light chain variable region and the heavy chain variable region mutation antibodies including 56-C2G4, 2-30-C2G4, 2-73-C2G4, 2-78-C2G4 with regard to recombinant human mesothelin (MSLN) was measured by using a Biacore T-200 (GE Healthcare, U.S.A.) biosensor. […] Then, the clone 56 antibody, the clone 2-30 antibody, the clone 2-73 antibody, the clone 2-78 antibody, the clone 56-C2G4 antibody, the clone 2-30-C2G4 antibody, the clone 2-73-C2G4 antibody, and the clone 2-78-C2G4 antibody serially diluted with HBS-EP buffer (10 mM HEPES, pH7.4, 150 mM NaCl, 3 mM EDTA, 0.005% surfactant P20) were allowed to flow at a concentration range of 0.078 nM to 5 nM and at a flow rate of 30 μL/min for association of 120 seconds and dissociation of 1800 seconds. The dissociation of the antibody bound to the MSLN was induced by flowing 10 mM Glycine-HCl pH 1.5 at a flow rate of 30 μL/min for 30 seconds (Table 17). The affinity was obtained as movement speed constants (Kₒₙ and Koff) and an equilibrium dissociation constant (KD) by using a Biacore T-200 evaluation software (Table 18).
(In general: SPR reads the build-up and loss of mass on a sensor chip optically.)
For the molecule B8, the Kd is 0.166 nM.
On the same count and under the same terms, in the case of B9 it was 0.234 nM; in that of B10, 0.165 nM.
The same measure, in the same setting: the figure for B11 is 0.125 nM; for B12 it is 0.163 nM; for B13 it is 0.0163 nM.

For orientation: Kd means the equilibrium constant for the complex coming apart.
